What all share (assay): purified protein
Assay type in all cases: biochemical, Streptococcus agalactiae
Common to all, as to conditions: 100 mM HEPES pH 7, 10 mM Mg2+, 0 mM NaCl, 30 °C, cooperative

Data set [1] deals with Nc1nc2c(ncn2[C@@H]2O[C@H](COP(=O)(O)OP(=O)(O)OP(=O)(O)O)[C@@H](O)[C@H]2O)c(=O)[nH]1.
Description: (§1) malachite green phosphate release, Hill fit on SaNsrF (SaNsrFWT)
The test system of data set [2] is Nc1ccn([C@@H]2O[C@H](COP(=O)(O)OP(=O)(O)OP(=O)(O)O)[C@@H](O)[C@H]2O)c(=O)n1.
Description: as §1
For data set [3], the system named is O=c1ccn([C@@H]2O[C@H](COP(=O)(O)OP(=O)(O)OP(=O)(O)O)[C@@H](O)[C@H]2O)c(=O)[nH]1.
Description: as §1

One may read the Vmax as the top rate of the reaction or transport when substrate is in excess. With “SaNsrF (SaNsrFWT) (Streptococcus agalactiae 2603V/R)”, the K0.5 in data set [1] is on record as 0.69 ± 0.07 mM; in data set [2], 1.23 ± 0.20 mM; in data set [3], 0.90 ± 0.13 mM. Besides, the Vmax was found to be 221.6 ± 11.1 nmol/min/mg in data set [1], 339.0 ± 30.4 nmol/min/mg in data set [2] and 314.8 ± 23.4 nmol/min/mg in data set [3].

(Values after PMC7494861, “Characterization of the nucleotide-binding domain NsrF from the BceAB-type ABC-transporter NsrFP from the human pathogen Streptococcus agalactiae” (Scientific Reports, 2020).)
